Data: publication PMC8798132

Target: HLA-DPB1 (from the recombinant plasmid pEGFP-N2-HLA-DPB1, expressed in 293T cells) (human) (UniProt P04440)
Experiment: flow cytometry on cells

Chain of UniProt P04440 (P04440 30-225): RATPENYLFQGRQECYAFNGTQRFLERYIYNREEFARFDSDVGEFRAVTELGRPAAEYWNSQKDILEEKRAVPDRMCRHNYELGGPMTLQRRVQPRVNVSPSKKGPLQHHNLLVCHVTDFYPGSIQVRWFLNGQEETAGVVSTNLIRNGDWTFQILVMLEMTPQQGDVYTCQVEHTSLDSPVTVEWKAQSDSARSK

## gp42/gHgL complex protein (from UniProt P03205 33-223; P03231 19-706; P03212 23-137)
  HLA-DP+ gp42+ cells (%) at 20 ug gp42 protein: 12.4%
  HLA-DP+ gp42+ cells (%) at 40 ug gp42 protein: 18.4%
  HLA-DP+ gp42+ cells (%) at 80 ug gp42 protein: 27.1%
  HLA-DPB1+ gp42+ cells (%), HLA-DPB1 recombinant plasmid group: 28.9%
  gp42+ cells (%) at 20 ug gp42 protein: 14%
  gp42+ cells (%) at 40 ug gp42 protein: 20.1%
  gp42+ cells (%) at 80 ug gp42 protein: 29.3%
  gp42+ cells (%), HLA-DPB1 recombinant plasmid group: 28.6%
